B1: HDV Ribozyme (parent)
chain: GGCCGGCAUGGUCCCAGCCUCCUCGCUGGCGCCGGCUGGGCAACAUUCCGAGGGGACCGUCCCCUCGGUAAUGGCGAAUGGGACCCA

The data set covers variants of B1. The data set is described as follows: self-cleavage, relative activity (ratio to wild type); higher = more cleavage; co-transcriptional.
In the case of GGCCGGCAUGGUCCCAGCCUCCUCGCUGCAGCCGGCUGGGCAACAUUCCGAGGGGACCGUCCCCUCGGUAAUGGCGAAUGGGACCCA [G29C C30A], the self-cleavage stood at 0.156.

GGCCGGCAUGGUCCCAGCCUCCUCGCUGGCGCCGGCUGGGCAACAUUCCGAGGGGACCGUCCCCUCGGUAAUGGCGAAUGAGAUCCA [G81A C84U]: the self-cleavage came to 0.327.

Consider GGCCGGCAUGGUCCCAGCCUCCUCGCUGGCGCCGGCUGGGGAACAUUCCGAGGGGACCGUCCCCUCGGUAAUGGCGAAUGGCACCCA [C41G G82C], for which the self-cleavage was 0.158.

GGCCGGCAUGGUCCCAGCCUCCUCGCUGGCGCCAGCUGGGCAACAUUCCGAGGGGACCGUCCCCUCGGUAAUGGCGAAUGGGGCCCA [G34A A83G]: the self-cleavage came to 0.0817.

Consider GGCCGGCAUAGUCCCAGCCUCCUCGCUGGCGCCGGCUGGGCAACAUUCCGAGGGGACCGUCCCCUCGGUAAUGGCGCAUGGGACCCA [G10A A77C], for which the self-cleavage is 0.237.

Take GGCCGGCAUGGUCCCAGCCUCCCCGCUGGCGCCGGCUGGGCAACAUUCCGAGGGGACCGUCCCCUCGGUAAUGGCGAAUGGGACUCA [U23C C85U]: the self-cleavage came out at 0.849.

In the case of GGCCGGCAUGGUCCCAGCCUCCUCGCUGGCGCCGGCUGGGAAACAUUCCGAGGGGACCGUCCCCUCUGUAAUGGCGAAUGGGACCCA [C41A G67U], the self-cleavage was found to be 0.739.

Regarding GGCCGCCAUGGUCCCAGCCUCCUCGCUGGCGCCGGCUGGACAACAUUCCGAGGGGACCGUCCCCUCGGUAAUGGCGAAUGGGACCCA [G6C G40A], the self-cleavage came out at 0.259.

For the variant GGCCGGCAUGGUCCCAGCCUCCUCGCUGGCGGCGGCUGGGCAACAUUCCGAGGGGACCGUCCCCUCGGUAAUGGCGAAUGGGACACA [C32G C85A], the self-cleavage was determined as 0.0378.

Regarding GGCCGGCAUGGUCCCAGCCUCCUCGCUGUCGCCGGCUGGGCAACAUCCCGAGGGGACCGUCCCCUCGGUAAUGGCGAAUGGGACCCA [G29U U47C], the self-cleavage is 0.19.

Take GGCCGGCAUGGUCCCAGCCUCCUGGCUGGCGCCGGAUGGGCAACAUUCCGAGGGGACCGUCCCCUCGGUAAUGGCGAAUGGGACCCA [C24G C36A]: the self-cleavage stood at 0.

As to GGCCGGCAUGGUCCCAGCCUCUUCGCUGGCGCCGGCUGGGCAACAUUCCGAGGGGACCGUCCCCUCGGUAAUGGCGAGUGGGACCCA [C22U A78G], the self-cleavage is 0.314.

As for GGCCGGCAUGGUCCCAGCCUCCUCGCUGGCGCCGGCUGGGCAACAUUCCGAGGGUACCGUCCCCUCGGUAAUGGCGAAUCGGACCCA [G55U G80C], the self-cleavage came out at 0.175.

Regarding GGCCGGCAUGGUCCCAGCCUCCUCGCUGGCGCCGGCUGGGCAACAUUCCGAGGUGACCGUCCCCUCGGUAAUGCCGAAUGGGACCCA [G54U G74C], the self-cleavage was 0.182.

With GGCCGGCAUGGUCCCAGCCUCCUCGCUGGCGCGGGCUAGGCAACAUUCCGAGGGGACCGUCCCCUCGGUAAUGGCGAAUGGGACCCA [C33G G38A], the self-cleavage was 0.0308.

For GGCCGGCAUGGUCUCAGCCUCCUCGCUGGCGCCGGCUGGGCAACAUUCCGAGGGGACCGUCCCCUCGGUAAUGGCGAAGGGGACCCA [C14U U79G], the self-cleavage amounted to 0.89.

As to GGCCGGCAUGGUCCCAGCCUCCUCGCUGGCGCCGGCUGUGCAACAUUCCGAGGGGACCGUCCCCUCGGUAAUAGCGAAUGGGACCCA [G39U G73A], the self-cleavage turned out to be 0.249.

For GGCCGGCAUGGUCCCAGCCUCCUCGCUGGCACCGGCUGGGCAACAUUCAGAGGGGACCGUCCCCUCGGUAAUGGCGAAUGGGACCCA [G31A C49A], the self-cleavage was found to be 0.353.

In the case of GGCCGGCAUGGUCCCAGCCUCCUCGCUGGCGCCGGCUGGGCAACAUUGCGAGGGGUCCGUCCCCUCGGUAAUGGCGAAUGGGACCCA [C48G A56U], the self-cleavage was found to be 1.03.

GGCCGGCAUGGUCCCAGCCUCCUCGCUGGCGCCGGCUGGGCAACAUUCCGAGCGGACCGUCCCCUCGGUAAUGGCGAAUCGGACCCA [G53C G80C]: the self-cleavage came out at 0.0755.

On to GGCCGGCAUGGUCCCAGCCUCCUCGCUGGCGCCGGUUGGGCAACAUUCCGAGGGGACCGUCCCGUCGGUAAUGGCGAAUGGGACCCA [C36U C64G], for which the self-cleavage came out at 0.606.

For GGCCGGCAUGGUCCCAGCCUCCUCGCUGGCGCCGGCUGGGCAACAUUCCGAGGGGACCGUCCCGUCGGUAAUGGCGAAUGGGAGCCA [C64G C84G], the self-cleavage was determined as 0.76.

For the variant GGCCGGCAUGGUCCCAGCCUUCUCGCUGGAGCCGGCUGGGCAACAUUCCGAGGGGACCGUCCCCUCGGUAAUGGCGAAUGGGACCCA [C21U C30A], the self-cleavage came out at 0.153.

Consider GGCCGGCAUGGUCCCAGCCUCCUCGCUGGCGCCGGUUGGGCAACAUUCCCAGGGGACCGUCCCCUCGGUAAUGGCGAAUGGGACCCA [C36U G50C], for which the self-cleavage is 0.612.

For the variant GGCCGGCAUGGUCCCAGCCUCCUCGCUGGCGCCGGCUGGGCAAUAUUCCGAGGGGACCGUACCCUCGGUAAUGGCGAAUGGGACCCA [C44U C61A], the self-cleavage is 0.751.

Consider GGCCGGCAUGGUCCCAGCCUCCUCGCUGGCGCCGGCUGGGCAACAUUCCGACGGGACCGUCCCCCCGGUAAUGGCGAAUGGGACCCA [G52C U65C], for which the self-cleavage came out at 1.18.

On to GGCCGGCAUGGUCCCAGGCUCCUCGCUGGCGCCGGCUGGGCAACAUUCCGAGGGGACCGUCCCUUCGGUAAUGGCGAAUGGGACCCA [C18G C64U], for which the self-cleavage was 0.147.

As to GGCCGGCAUGGUCCCAGCCUCCUCGCUGGCGCCGGCUGGGCAACAUUCCGACGGGACCGUCCCCUCGGUAAUGGCGAAUCGGACCCA [G52C G80C], the self-cleavage is 0.326.

On to GUCCGGCAUGGUCCCAGACUCCUCGCUGGCGCCGGCUGGGCAACAUUCCGAGGGGACCGUCCCCUCGGUAAUGGCGAAUGGGACCCA [G2U C18A], for which the self-cleavage is 0.

As for GGCCGGCAUGGUCCCAGCCUCCUCGCUGGGGCCGGCUGGGAAACAUUCCGAGGGGACCGUCCCCUCGGUAAUGGCGAAUGGGACCCA [C30G C41A], the self-cleavage was determined as 0.0361.

For GGCCGGUAUGGUCCCAGCCUCCUCGCUGGCGCCGGCUGGGCAACAUUCCGAGGGGACCGUCCCCUCGGUAAUGGGGAAUGGGACCCA [C7U C75G], the self-cleavage was found to be 0.0852.

As for GGCCGGCAUGGUCCCAGCCUCCUCGCUGGCGCCGGCUGGGCAACAUUCCGAGGGGACCGUCACCUCGGUAAUGGCGAAUGGGACCGA [C62A C86G], the self-cleavage is 0.975.

Values taken from the RNAGym collection of RNA variant scans (doi:10.7554/elife.80360).
